Data set [1] concerns the target human insulin promoter factor 1 (IPF-1), His and Xpress-tagged at the N-terminus.
Data set [2] addresses T1, human hepatocyte nuclear factor 1α (HNF-1α), His and Xpress-tagged at the N-terminus (not fully specified).
T1 chain: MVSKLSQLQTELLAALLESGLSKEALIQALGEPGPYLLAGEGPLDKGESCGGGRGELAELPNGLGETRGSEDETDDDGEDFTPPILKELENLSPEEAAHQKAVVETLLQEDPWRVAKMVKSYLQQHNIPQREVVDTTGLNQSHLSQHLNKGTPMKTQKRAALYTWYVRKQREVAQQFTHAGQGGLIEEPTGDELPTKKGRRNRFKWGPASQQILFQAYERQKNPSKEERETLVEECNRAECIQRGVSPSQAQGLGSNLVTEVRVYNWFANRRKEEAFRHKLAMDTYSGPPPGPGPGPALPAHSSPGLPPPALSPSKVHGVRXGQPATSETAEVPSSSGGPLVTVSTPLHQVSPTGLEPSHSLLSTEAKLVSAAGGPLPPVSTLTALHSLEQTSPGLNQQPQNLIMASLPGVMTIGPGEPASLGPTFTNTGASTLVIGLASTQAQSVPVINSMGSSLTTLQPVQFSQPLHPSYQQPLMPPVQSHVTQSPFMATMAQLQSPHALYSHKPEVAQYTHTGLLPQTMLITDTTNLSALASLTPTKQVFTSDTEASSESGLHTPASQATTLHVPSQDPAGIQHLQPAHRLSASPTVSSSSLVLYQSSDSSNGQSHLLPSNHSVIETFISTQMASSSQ

The target of data set [3] is T2, human hepatocyte nuclear factor 4α (HNF-4α), His and Xpress-tagged at the N-terminus.
T2 chain: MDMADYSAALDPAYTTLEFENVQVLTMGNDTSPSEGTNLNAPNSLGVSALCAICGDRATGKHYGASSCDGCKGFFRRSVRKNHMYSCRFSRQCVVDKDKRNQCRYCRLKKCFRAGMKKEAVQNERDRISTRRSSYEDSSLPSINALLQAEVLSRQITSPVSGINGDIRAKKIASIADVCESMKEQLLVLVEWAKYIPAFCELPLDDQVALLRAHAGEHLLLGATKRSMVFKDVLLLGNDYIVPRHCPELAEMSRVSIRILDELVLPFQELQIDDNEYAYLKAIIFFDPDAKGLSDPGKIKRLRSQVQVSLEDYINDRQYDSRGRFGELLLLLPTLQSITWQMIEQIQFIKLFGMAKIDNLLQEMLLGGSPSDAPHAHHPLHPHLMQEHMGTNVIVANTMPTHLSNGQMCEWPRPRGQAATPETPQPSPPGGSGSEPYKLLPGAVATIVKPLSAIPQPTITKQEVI

Sequence of human insulin promoter factor 1 (IPF-1), His and Xpress-tagged at the N-terminus (chain, as listed by the source): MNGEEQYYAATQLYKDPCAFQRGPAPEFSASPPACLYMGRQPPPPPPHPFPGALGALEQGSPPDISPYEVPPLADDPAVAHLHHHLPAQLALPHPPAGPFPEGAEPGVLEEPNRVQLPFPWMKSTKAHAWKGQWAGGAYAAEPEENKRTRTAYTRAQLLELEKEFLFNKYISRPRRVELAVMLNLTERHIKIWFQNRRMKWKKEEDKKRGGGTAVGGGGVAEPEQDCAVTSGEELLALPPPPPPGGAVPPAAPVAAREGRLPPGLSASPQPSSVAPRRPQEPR

B1: rat m-calpain (Calpain 2, rat recombinant, E. coli, Calbiochem, Inc.) (protein)
chain: MAGIAMKLAKDREAAEGLGSHERAIKYLNQDYETLRNECLEAGALFQDPSFPALPSSLGFKELGPYSSKTRGIEWKRPTEICADPQFIIGGATRTDICQGALGDCWLLAAIASLTLNEEILARVVPLDQSFQENYAGIFHFQFWQYGEWVEVVVDDRLPTKDGELLFVHSAEGSEFWSALLEKAYAKINGCYEALSGGATTEGFEDFTGGIAEWYELRKPPPNLFKIIQKALEKGSLLGCSIDITSAADSEAVTYQKLVKGHAYSVTGAEEVESSGSLQKLIRIRNPWGQVEWTGKWNDNCPSWNTVDPEVRANLTERQEDGEFWMSFSDFLRHYSRLEICNLTPDTLTCDSYKKWKLTKMDGNWRRGSTAGGCRNYPNTFWMNPQYLIKLEEEDEDDEDGERGCTFLVGLIQKHRRRQRKMGEDMHTIGFGIYEVPEELTGQTNIHLSKNFFLTTRARERSDTFINLREVLNRFKLPPGEYVLVPSTFEPHKNGDFCIRVFSEKKADYQTVDDEIEANIEEIEANEEDIGDGFRRLFAQLAGEDAEISAFELQTILRRVLAKREDIKSDGFSIETCKIMVDMLDEDGSGKLGLKEFYILWTKIQKYQKIYREIDVDRSGTMNSYEMRKALEEAGFKLPCQLHQVIVARFADDELIIDFDNFVRCLVRLEILFKIFKQLDPENTGTIQLDLISWLSFSVL
Consider B1, for which the “in vitro protein degradation test, Western blotting with anti-Xpress and anti-IPF-1 antibody” value in data set [1] was “the in vitro degradation of IPF-1 by each of human µ-calpain, rabbit m-calpain and rat m-calpain was observed”. In data set [2], the “in vitro protein degradation test, Western blotting with anti-Omni/M21 and anti-HNF-1α antibody” value is “the in vitro degradation of HNF-1α by each of human µ-calpain, rabbit m-calpain and rat m-calpain was observed”.

B2: human µ-calpain extracted from human erythrocytes (Calpain 1, human erythrocytes; Calbiochem, Inc.) (protein)
chain: SEEIITPVYCTGVSAQVQKQRARELGLGRHENAIKYLGQDYEQLRVRCLQSGTLFRDEAFPPVPQSLGYKDLGPNSSKTYGIKWKRPTELLSNPQFIVDGATRTDICQGALGDCWLLAAIASLTLNDTLLHRVVPHGQSFQNGYAGIFHFQLWQFGEWVDVVVDDLLPIKDGKLVFVHSAEGNEFWSALLEKAYAKVNGSYEALSGGSTSEGFEDFTGGVTEWYELRKAPSDLYQIILKALERGSLLGCSIDISSVLDMEAITFKKLVKGHAYSVTGAKQVNYRGQVVSLIRMRNPWGEVEWTGAWSDSSSEWNNVDPYERDQLRVKMEDGEFWMSFRDFMREFTRLEICNLTPDALKSRTIRKWNTTLYEGTWRRGSTAGGCRNYPATFWVNPQFKIRLDETDDPDDYGDRESGCSFVLALMQKHRRRERRFGRDMETIGFAVYEVPPELVGQPAVHLKRDFFLANASRARSEQFINLREVSTRFRLPPGEYVVVPSTFEPNKEGDFVLRFFSEKSAGTVELDDQIQANLPDEQVLSEEEIDENFKALFRQLAGEDMEISVKELRTILNRIISKHKDLRTKGFSLESCRSMVNLMDRDGNGKLGLVEFNILWNRIRNYLSIFRKFDLDKSGSMSAYEMRMAIESAGFKLNKKLYELIITRYSEPDLAVDFDNFVCCLVRLETMFRFFKTLDTDLDGVVTFDLFKWLQLTMFA
Regarding B2, the “in vitro protein degradation test, Western blotting with anti-Xpress and anti-IPF-1 antibody” value in data set [1] was “the in vitro degradation of IPF-1 by each of human µ-calpain, rabbit m-calpain and rat m-calpain was observed”. Moreover, in data set [2], the “in vitro protein degradation test, Western blotting with anti-Omni/M21 and anti-HNF-1α antibody” value is “the in vitro degradation of HNF-1α by each of human µ-calpain, rabbit m-calpain and rat m-calpain was observed”. The “in vitro protein degradation test, Western blotting with anti-HNF-4α antibody” value in data set [3] was “the degradation of HNF-4α by human µ-calpain was observed”.
